From the supplement of paper PMC7125110
± gives the standard error. For some of these results: This sample holds only a part of the variants without activity.

B1: glmS ribozyme (parent)
chain: AUAAAAGCGCCAGAACUACAGAAAUGUAGUUGACGAGGAGGAGGUUUAUCGAAUUUUCGGCGGAUGCCUCCAAA

Experiments:
Conditions in all cases: with glucosamine-6-phosphate
[1] = variants of: B1; test: kcat; higher = faster cleavage; RNA array
Method in brief: (§1)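 Sequenced MiSeq chips were the platform: E. coli RNA polymerase transcribed barcoded ribozyme variants on them in situ, and a hybridised Cy3 probe tracked these at 37 °C. After glucosamine-6-phosphate (40 μM to 10 mM) in HEPES/KCl/Mg(OAc)2 buffer was flowed in, tiles were imaged over ~14 h. Signals normalised to baseline and to non-cleaving reference variants were reduced to per-tile medians and fit to one- or two-exponential decays to obtain kobs. kcat and KM were derived through weighted Michaelis–Menten fits across concentrations.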

[2] = variants of: B1; test: self-cleavage kobs at 640 uM GlcN6P; higher = faster cleavage; RNA array
Method in brief: as §1

[3] = variants of: B1; test: self-cleavage kobs at 2500 uM GlcN6P; higher = faster cleavage; RNA array
Method in brief: as §1

[4] = variants of: B1; test: self-cleavage kobs at 10000 uM GlcN6P; higher = faster cleavage; RNA array
Method in brief: as §1

[5] = variants of: B1; test: KM; higher = weaker cofactor use; RNA array
Method in brief: as §1

[6] = variants of: B1; test: self-cleavage kobs at 40 uM GlcN6P; higher = faster cleavage; RNA array
Method in brief: as §1

[7] = variants of: B1; test: self-cleavage kobs at 160 uM GlcN6P; higher = faster cleavage; RNA array
Method in brief: as §1

Variant | kcat [1] | self-cleavage kobs at 640 uM GlcN6P [2] | self-cleavage kobs at 2500 uM GlcN6P [3] | self-cleavage kobs at 10000 uM GlcN6P [4] | KM [5] | self-cleavage kobs at 40 uM GlcN6P [6] | self-cleavage kobs at 160 uM GlcN6P [7]
U54C U57A | 0.000407 ± 0.00018 s⁻¹ | 7.93e-05 ± 1.9e-05 s⁻¹ | 0.000112 ± 2.5e-05 s⁻¹ | 0.000297 ± 4.3e-05 s⁻¹ | – | – | –
U57A C61G | 1.36e-05 ± 5.5e-06 s⁻¹ | – | – | – | – | – | –
A14G C58A | 0.00151 ± 0.00049 s⁻¹ | 0.000214 ± 2.3e-05 s⁻¹ | 0.000448 ± 6.1e-05 s⁻¹ | 0.0012 ± 0.00014 s⁻¹ | 4260 ± 2000 µM | 2.97e-05 ± 1e-05 s⁻¹ | 6.76e-05 ± 3.4e-05 s⁻¹
A64C U65A | 2.96e-05 ± 5.1e-06 s⁻¹ | – | – | – | – | < 1e-05 s⁻¹ | < 1e-05 s⁻¹
G29A A39C | 0.000943 ± 4.4e-05 s⁻¹ | 0.000243 ± 3.2e-05 s⁻¹ | 0.000521 ± 8.6e-05 s⁻¹ | 0.000813 ± 9.1e-05 s⁻¹ | 1820 ± 150 µM | 2.46e-05 ± 8.5e-06 s⁻¹ | 7.61e-05 ± 1.5e-05 s⁻¹
G51U U69G | 4.26e-05 ± 1.5e-05 s⁻¹ | 5.57e-05 ± 1.3e-05 s⁻¹ | 7e-05 ± 1e-05 s⁻¹ | 1.72e-05 ± 8.1e-06 s⁻¹ | – | – | 5.17e-05 ± 1.2e-05 s⁻¹
G32C U55G | 0.000137 ± 1.4e-05 s⁻¹ | – | 2.64e-05 ± 8.4e-06 s⁻¹ | 6.68e-05 ± 1.2e-05 s⁻¹ | – | – | –
C11U U54A | 0.00189 ± 0.00049 s⁻¹ | 0.000876 ± 0.00016 s⁻¹ | 0.00164 ± 0.00021 s⁻¹ | 0.00149 ± 0.00021 s⁻¹ | 1150 ± 470 µM | 8.46e-05 ± 1.3e-05 s⁻¹ | 0.000164 ± 3.1e-05 s⁻¹
